From the nanobody polyreactivity screen of Harvey et al. (2022)

Assay: yeast display, Sf9 membrane polyspecificity reagent, FACS + sequencing; frameworks hold sequencing errors
Summary of the method: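 Polyreactivity labels are assigned by the sorting gate from which each nanobody was recovered. The gates were low and high (top ~1%), set on anti-HA fluorescence for expression and streptavidin fluorescence for reagent binding. Before sorting, galactose-induced (36–48 hours) yeast display cells were stained for 1 hour at 4 °C with 10% biotinylated, detergent-solubilized Sf9 membrane reagent.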

| Sequence | polyreactivity (PSR sort gate) |
| --- | --- |
| QVQLEESGGGLVQAGGSLRLSCAASGSIFSYNAMGWYRQAPGKERELVAAISRGSGSTYYADSVKGRFTISRDNAKNTVYLQMNSLKPEDTAVYYCATRSIRVLPDVYRKADDYWGQGTQVTVSS | low polyreactivity |
| QVQLEESGGGLVQAGGSLRLSCAASGSIFVGNVMGWYRQAPGKERELVAAITYSGGSTYYADSVKGRFTISRDNAKNTVYLQMNSLKPEDTAVYYCAKPSRVSIGYDYWGQGTQVTVSS | low polyreactivity |
| QVQLEESGGGLVQAGGSLRLSCAASGSIFVYYGMGWYRQAPGKERELVAAISSGGSTHYADSVKGRFTISRDNAKNTVYLQMNSLKPEDTAVYYCNARAYGNGLGTGYFGKHRYDYWGQGTQVTVSS | low polyreactivity |
| QVQLEESGGGLVQAGGSLRLSCAASGSIFWGYAIGWYRQAPGKERELVAAISNTGSTNYADSVKGRFTISRDNAKNTVYLQMNSLKPEDTAVYYCNASYTYGEMDYWGQGTQVTVSS | low polyreactivity |
| QVQLEESGGGLVQAGGSLRLSCAASGSIFYLNDMGWYRQAPGKEREFVAAIDSRGTSTYYADSVKGRFTISRDNAKNTVYLQMNSLKPEDTAVYYCAADSYALEYDYWGQGTQVTVSS | low polyreactivity |
| QVQLEESGGGLVQAGGSLRLSCAASGSIFYSYAMGWYRQAPGNERELVAAITRGGSTYYADSVKGRFTISRDNAKNTVYLQMNSLKPEDTAVYYCAADSQYGWPEYEYDYWGQGTQVTVSS | low polyreactivity |
| QVQLEESGGGLVQAGGSLRLSCAASGSILPDYVMGWYRQAPGKERELVAAISWSDGSTYYADSVKGRFTISRDNAKNTVYLQRNSLKPEDTAVYYCAAEVWDYYYGCYADDYWGQGTQVTVSS | low polyreactivity |
| QVQLEESGGGLVQAGGSLRLSCAASGSILRRYAMGWYRQAPGKEREFVAAMSYSGSRTYYADSVKGRFTISRDNAKYTVYLQMYSLKPEDTAVYYCAADSYGSRYEYWGLGTQVTVSS | high polyreactivity |
| QVQLEESGGGLVQAGGSLRLSCAASGSILTDNAMGWYRQAPGKERELVAANSYSGASTYYADSVKGRFTISRDNAKNTVYLQMNSLKPEDTAVFYCAARYVSATPQLKARVRYYYWGQGTQVTVSS | high polyreactivity |
| QVQLEESGGGLVQAGGSLRLSCAASGSILVIYTMGWYRQAPGKERELVAGINYSGGRTYYADSVKGRFTISRDNAKNTVYLQMNSLKPEDTAVYYCSADYYFLDWYDYWGQGTQVTVSS | low polyreactivity |
| QVQLEESGGGLVQAGGSLRLSCAASGSILVKYAMGRYRQAPGKERELVASITSTGNTYYADSVKGRFTISRDNAKNTVYLQMNSLKPEDTAVYYCAADAAFTYVYFQSDGYNYWGQGTQVTVSS | low polyreactivity |
| QVQLEESGGGLVQAGGSLRLSCAASGSILVRYAMGWYRQAPGKERELVAAITYSVGSTYYADSVKGRFTISRDNAKNTVYLQMNSLKPEDTAVYYCAASGGTEVLLMDYWGQGTQVTVSS | low polyreactivity |
| QVQLEESGGGLVQAGGSLRLSCAASGSISSFNTMGWYRQAPGKERELVAAITRDGSTYYADSVKGRFTISRDNAKNTVYLQMNSLKPEDTAVYYCAARGWYATWLYYYWGQGTQVTVSS | high polyreactivity |
| QVQLEESGGGLVQAGGSLRLSCAASGSTFDVYAMGWYRQAPGKERELVAAIRSSGGSTFYADSVKGRFTISRDNAKNIVYLQMNSLKPEDTAVYYCAARSFVVSGYNKYYEYGYWGQGTQVTVSS | low polyreactivity |
| QVQLEESGGGLVQAGGSLRLSCAASGSTFFIYAMGWYRQAPGKERELVAVIRNIDVRTYYADSVKGRFTISRDNAKNTVYLQMNSLKPEDTAVYYCAADELLDESVDMYYWGQGTQVTVSS | low polyreactivity |
| QVQLEESGGGLVQAGGSLRLSCAASGSTFGKNAMGWYRQAPGKERELVASITWRGGSTYYADSVKGRFTISRDNAKNTVYLQMNSLKPEDTAVYYCAADYVVSAFDYWGQGTQVTVSS | low polyreactivity |
| QVQLEESGGGLVQAGGSLRLSCAASGSTFKTYASGWYRQAPGKERELVAAISWSGGSTYYAESVKGRFTISRDNAKNTVYLQMNSLKPEDTAVYYCNAGWGYPSPWFIGEYWGQGTQVTVSS | low polyreactivity |
| QVQLEESGGGLVQAGGSLRLSCAASGSTFRDYAMGWYRQAPGKQRELVAAITSGGSTNYADSVKGRFTISRDNAKNTVYLQMNSLKPEDTAVYYCNARYAGWYTPWGRQSVYSDDYWGQGTQVTVSS | low polyreactivity |
| QVQLEESGGGLVQAGGSLRLSCAASGSTFSYYAKGWYRQAPGKERELVAVISRGGSTNYADSVKGRFTISRDNAKNTVYLQMNSLKPEDTAVYYCAADAIPDSVRYWEYDYWGQGTQVTVSS | low polyreactivity |
| QVQLEESGGGLVQAGGSLRLSCAASGSTFTPNAMGWYRQAPGKEREFVAGIDWNDGSTYYADSVKGRFTISRDNAKNTVYLQMNSLQPEDTEVYYCNAQWVSWWSLYDYWGQGTQVTVSS | high polyreactivity |
| QVQLEESGGGLVQAGGSLRLSCAASGSTFTRYAMGWYRQAPGKERELVAAISRGGSTNYADSVKGRFTISRDNAKNTVYLQMNSLKPEDTAVYYCAARSWYLRYDYWGQGTQVTVSS | high polyreactivity |
| QVQLEESGGGLVQAGGSLRLSCAASGSTFVYNAMGWYRQAPGKEMELVAAISRRGGSTYYADSVKGRFTISRDNAKNTVYLQMNSLKPEDTAVYYCAADPSYYTYFSFDLSESDYWGQGTQVTVSS | low polyreactivity |
| QVQLEESGGGLVQAGGSLRLSCAASGSTFYINAMGWYRQAPGKERELVAAITWRGGRTYYADSVKGRFTISRDNAKNTVYLQLNSLKPEDTAVYYCAAKVRWHRGTSSYYYWGQGTQVTVSS | high polyreactivity |
| QVQLEESGGGLVQAGGSLRLSCAASGSTYWLYPMGGYRQATGKERELVATISERGGSTYYADSVKGRFTISRDNAKNTVYLQMNSLKPEDTAVYYCAAHVYGSWPDYDYWGQGTQVSVSS | low polyreactivity |
| QVQLEESGGGLVQAGGSLRLSCAASGYTFESYPMGWYRQAPGKEREFVAVISSSDTSTSYADSVKGRFTISRDNAKNTVYLQMNSLNPEDTAVYYCAAYSSPYYITYYWYNYDYWGQGTQVTVSS | low polyreactivity |
| QVQLEESGGGLVQAGGSLRLSCAASGYTFRGNARGWYRQAPGKERELVASISYSGGTTYADSVKGRFTISRDNAKNTVYLHRNSLKQEDTAVYYCNAAGFYYLYSHRQYEFWGQGTQLTVSS | low polyreactivity |
| QVQLEESGGGLVQAGGSLRLSCAASGYTSLYYGMGWYRQAPGKERELVASISRGGSTYADSVKGRFTISRDNAKNTVYLLMNRLKPEDTAVYYCNADGGWDDPWSGWVEYDYWGQGTQVTGSS | low polyreactivity |
| QVQLEESGGGLVQAGGSLRLSCAASVFTFSRYAMGWYRQAHGKVREIVAAISYRGGSTYADSVKGRFTISRDNAKNTVYLQMNSLKPEDTAVYYCAALRWGTDVWRRRIGSLLMGYSGQGTQVTVSS | high polyreactivity |
| QVQLEESGGGLVQAGGSLRLSCAATGILRLNAIGWYRHAPGKEREFVATISRSGGITYYADSVKGRFTISRDNAKNTVYLQMNSLKPEDTAVYYCAKGGYSLYGYWGQGTQVTVSS | high polyreactivity |
| QVQLEESGGGLVQAGGSLRLSCAAYGGIFGYYPMGWYRQATGKERELVAAINYSGGSTYYADSVKGRFTISRDNSKNTVYLQMNSLKPEVTAVYYCAKRSYGGTLHYAFDSWGQGTQVTVSS | low polyreactivity |
